Experiments:
human SPNS2 [1] = biological target: T1, human SPNS2 (human, UniProt Q8IVW8 1-549); assay: Cell ELISA
T1 construct: S1P transporter; in Cell ELISA and S1P assays on Flp-in 293 cells that also express human SphK1; also called Spinster homolog 2; native type
T1 sequence: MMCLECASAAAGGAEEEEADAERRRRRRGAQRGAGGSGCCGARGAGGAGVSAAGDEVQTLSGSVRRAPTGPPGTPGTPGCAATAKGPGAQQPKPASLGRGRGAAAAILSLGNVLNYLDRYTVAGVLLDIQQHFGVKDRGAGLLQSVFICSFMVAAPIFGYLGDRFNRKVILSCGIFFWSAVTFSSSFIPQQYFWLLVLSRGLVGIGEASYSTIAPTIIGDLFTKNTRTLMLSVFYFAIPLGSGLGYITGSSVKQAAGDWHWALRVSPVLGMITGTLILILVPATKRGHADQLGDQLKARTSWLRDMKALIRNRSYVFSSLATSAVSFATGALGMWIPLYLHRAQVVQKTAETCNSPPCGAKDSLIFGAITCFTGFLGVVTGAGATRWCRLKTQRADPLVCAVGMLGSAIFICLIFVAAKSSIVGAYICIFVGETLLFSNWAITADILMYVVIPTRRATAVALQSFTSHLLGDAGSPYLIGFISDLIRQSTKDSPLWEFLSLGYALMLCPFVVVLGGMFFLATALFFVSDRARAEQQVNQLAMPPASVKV
Procedure: (§1) Human and mouse SPNS2 and human SphK1 double stable expression Flp-in 293 cells were added to a poly D lysine coat 96-well plate (Corning, 356461) in a density of 1×10⁵ cells/well and was cultivated overnight, and then the culture medium was removed. An anti-SPNS2 antibody solution was adjusted into 20 μg/mL using 0.2% FBS/3% BSA/PBS, and 0.2% FBS/3% BSA/PBS (60 μL) was added to the antibody diluted solution (20 μL) to prepare seven-step diluted solutions by four fold serial dilution. Each diluted solution of the anti-SPNS2 antibody was added in a volume of 30 μL/well, and reacted for about one hour at room temperature. The antibody solution was removed, and the residue was washed with PBS containing 0.05% Tween 20 (PBS-T) two times, and fixed for about ten minutes at room temperature using 10% buffered formalin (Mildform (Trade mark) 10NM, Wako). After washing with PBS-T one time, a 5000-fold diluted solution of anti-rat IgG antibody HRP conjugate (Southern Biotech, 3030-05) in 0.2% FBS/3% BSA/PBS was added to each well (30 μL), and reacted for about one hour at room temperature. After washing with PBS-T four times, a substrate (TMB; 3, 3′, 5, 5′-tetramethylbenzidin) was added to each well (100 μL) to initiate the reaction. After 20 minutes, 2N sulfuric acid was added to each well (100 μL), and absorbance at 450 nm and 550 nm was measured. […] Each antibody bound to human SPNS2 and mouse SPNS2.

mouse SPNS2 [2] = biological target: T2, mouse SPNS2 (mouse, UniProt Q91VM4 1-549); assay: Cell ELISA
T2 construct: on Flp-in 293 cells that also express human SphK1
T2 sequence: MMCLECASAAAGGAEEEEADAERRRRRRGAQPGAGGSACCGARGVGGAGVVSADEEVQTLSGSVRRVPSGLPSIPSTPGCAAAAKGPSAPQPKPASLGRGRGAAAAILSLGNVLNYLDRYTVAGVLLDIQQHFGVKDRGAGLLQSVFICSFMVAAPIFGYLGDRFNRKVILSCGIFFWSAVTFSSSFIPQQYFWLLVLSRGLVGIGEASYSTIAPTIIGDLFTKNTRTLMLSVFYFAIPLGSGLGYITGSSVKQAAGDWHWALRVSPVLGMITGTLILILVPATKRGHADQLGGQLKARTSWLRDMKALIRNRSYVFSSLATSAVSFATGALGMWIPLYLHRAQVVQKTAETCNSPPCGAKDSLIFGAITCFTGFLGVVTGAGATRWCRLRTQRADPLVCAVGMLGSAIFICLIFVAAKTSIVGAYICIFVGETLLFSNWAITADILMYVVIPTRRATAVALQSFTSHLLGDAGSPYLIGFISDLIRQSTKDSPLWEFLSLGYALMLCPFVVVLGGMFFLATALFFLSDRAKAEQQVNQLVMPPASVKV
Procedure: as §1

human SPNS2 [3] = biological target: T1, human SPNS2; assay: cell-based or functional assay
mouse SPNS2 [4] = biological target: T2, mouse SPNS2; assay: cell-based or functional assay
[5] = biological target: T3, Mutant 3 of human SPNS2 (FLAG tag inserted in extracellular loop 7) (human, UniProt Q8IVW8 1-549); assay: flow cytometry, FLAG-insertion mutant
T3 construct: on HEK293 cells; also called extracellular loop 7 mutant
T3 sequence: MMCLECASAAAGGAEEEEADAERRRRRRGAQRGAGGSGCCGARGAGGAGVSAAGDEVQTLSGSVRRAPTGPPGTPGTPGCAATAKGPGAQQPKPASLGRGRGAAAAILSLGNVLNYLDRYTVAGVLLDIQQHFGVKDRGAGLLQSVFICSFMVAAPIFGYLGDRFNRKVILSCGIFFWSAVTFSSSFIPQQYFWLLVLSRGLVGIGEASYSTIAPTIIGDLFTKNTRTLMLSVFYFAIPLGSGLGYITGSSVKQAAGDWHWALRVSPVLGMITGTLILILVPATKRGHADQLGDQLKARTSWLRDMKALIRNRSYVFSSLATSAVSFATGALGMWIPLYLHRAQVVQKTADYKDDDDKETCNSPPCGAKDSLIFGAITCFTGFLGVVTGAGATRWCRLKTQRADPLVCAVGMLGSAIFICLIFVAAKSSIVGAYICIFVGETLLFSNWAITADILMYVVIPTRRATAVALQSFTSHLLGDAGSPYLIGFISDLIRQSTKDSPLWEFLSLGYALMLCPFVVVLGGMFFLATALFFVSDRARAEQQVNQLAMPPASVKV
Procedure: After the lipofection, the HEK 293 cells cultivated overnight were recovered from the culture dishes, and reacted with a cell staining buffer (BioLegend, 420201) containing an anti-FLAG antibody (Sigma-Aldrich, F1804) and an anti-SPNS2 antibody each in a volume of 20 μg/mL for 30 minutes at room temperature. After washing with a cell staining buffer one time, the anti-FLAG antibody was detected with an anti-mouse IgG-Alexa 647 conjugate antibody, and the anti-SPNS2 antibody was detected with an anti-rat IgG-FITC conjugate antibody with flow cytometer BD LSR Fortessa (Becton Dickinson). The binding ability to each mutant was evaluated with the ratio of the FITC-positive cell rate to the Alexa 647-positive cell rate. In Table 7, symbol (+) indicates a ratio of less than 0.1, symbol (±) indicates a ratio of 0.1 or more and less than 0.5, and symbol (−) indicate a ratio of 0.5 or more.

B1: 49-0703G (antibody, IgG2b, V domains shown)
VH: EVQLVESGGGLVQPGRSMKLSCAASGFTFSNHYMAWVRQAPTKGLEWVASISTGGGNTYYRDSVKGRFTISRDNAKSTLYLQMDSLRSEDTATYYCARQDYSNYMGGFAYWGQGTLVTVSS
VL: QFVLTQPNSVSTNLGSTVKLSCKRSTGNIGNNYVNWYQQYEGRSPTTMIYRDDERPDGVPDRFSGSIDRSSNSALLTINNVQTEDEADYFCQSFSNGMFIFAGGTQLTVL
Emax (human SPNS2 [1]): 1.77 absorbance
pEC50 (human SPNS2 [1]): 8.42 pEC50 (M)
Emax (mouse SPNS2 [2]): 1.67 absorbance
pEC50 (mouse SPNS2 [2]): 8.09 pEC50 (M)
pIC50, S1P transport inhibition (LC-MS/MS of S1P) (human SPNS2 [3]): 7.4 pIC50 (M)
pIC50, S1P transport inhibition (LC-MS/MS of S1P) (mouse SPNS2 [4]): 7.6 pIC50 (M)
FITC+/Alexa 647+ cell rate ratio [5]: ≥ 0.5 ratio

Reference: US20210147523A1 (TEIJIN PHARMA, published 2021)
